Measured values as given in the supplement of paper PMC10567573.

B1: KCNK9 (parent)
chain: CFITLTTIGFGDYVALQTKGALQK

Variants of: B1
Experiment: protein stability index of a GFP-peptide fusion (GPS, HEK-293T) (PSI 1-6); higher = more stable
Conditions: c terminus: a fixed tail appended
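Note: lentivirally expressed fusions sorted by FACS into six bins by GFP to DsRed ratio, PSI derived from sequencing read proportions per bin multiplied by bin number.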

Variant	protein stability index
CFITLTTIGFGDYVALQTEGALQK [K19E]	2.46
CFITLTTIGFGDYVALQTSGALQK [K19S]	2.11
CFITLTTIGFGDYVALQTGGALQK [K19G]	1.24
CFITLTTIGFGDYVALQTYGALQK [K19Y]	3.38
CFITLTTIGFGDYVALQTHGALQK [K19H]	1.98
CFITLTTIGFGDYVALQTWGALQK [K19W]	2.13
CFITLTTIGFGDYVALQTIGALQK [K19I]	2.23
CFITLTTIGFGDYVALQTLGALQK [K19L]	2.36
CFITLTTIGFGDYVALQTTGALQK [K19T]	4.24
CFITLTTIGFGDYVALQTNGALQK [K19N]	4.09
CFITLTTIGFGDYVALQTVGALQK [K19V]	3.26
CFITLTTIGFGDYVALQTFGALQK [K19F]	1.95
CFITLTTIGFGDYVALQTQGALQK [K19Q]	2.16
CFITLTTIGFGDYVALQTKGAGQK [L22G]	2.86
CFITLTTIGFGDYVALQTKGAWQK [L22W]	2.21
CFITLTTIGFGDYVALQTKGARQK [L22R]	2.12
CFITLTTIGFGDYVALQTKGACQK [L22C]	2.29
CFITLTTIGFGDYVALQTKGAAQK [L22A]	3.37
CFITLTTIGFGDYVALQTKGAEQK [L22E]	3.67
CFITLTTIGFGDYVALQTKGATQK [L22T]	3.37
CFITLTTIGFGDYVALQTKGANQK [L22N]	1.91
CFITLTTIGFGDYVALQTKGADQK [L22D]	4.33
CFITLTTIGFGDYVALQTKGAPQK [L22P]	2.56
CFITLTTIGFGDYVALQTKGAYQK [L22Y]	2.37

Variant	protein stability index
CFITLTTIGFGDYVALQTKGASQK [L22S]	3.93
CFITLTTIGFGDYVALQTKGAMQK [L22M]	3.38
CFITLTTIGFGDYVALQTKGAQQK [L22Q]	2.46
CFITLTTIGFGDYVALQTKGAFQK [L22F]	2.72
CFITLTTIGFGDYVALQTKGAVQK [L22V]	2.62
CFITLTTIGFGDYVALQTKGAIQK [L22I]	2.06
CFITLTTIGFGDYVALQTKGAKQK [L22K]	2.4
CFITLTTIGFGDYVALQWKGALQK [T18W]	3.1
CFITLTTIGFGDYVALQPKGALQK [T18P]	1.64
CFITLTTIGFGDYVALQHKGALQK [T18H]	3
CFITLTTIGFGDYVALQLKGALQK [T18L]	3.51
CFITLTTIGFGDYVALQMKGALQK [T18M]	2.49
CFITLTTIGFGDYVALQRKGALQK [T18R]	2.64
CFITLTTIGFGDYVALQKKGALQK [T18K]	1.58
CFITLTTIGFGDYVALQIKGALQK [T18I]	2.12
CFITLTTIGFGDYVALQNKGALQK [T18N]	2.42
CFITLTTIGFGDYVALQYKGALQK [T18Y]	3.26
CFITLTTIGFGDYVALQSKGALQK [T18S]	2.27
CFITLTTIGFGDYVALQQKGALQK [T18Q]	2.63
CFITLTTIGFGDYVALQTKGILQK [A21I]	2.44
CFITLTTIGFGDYVALQTKGSLQK [A21S]	2.43
CFITLTTIGFGDYVALQTKGWLQK [A21W]	3.01
CFITLTTIGFGDYVALQTKGELQK [A21E]	3.6
CFITLTTIGFGDYVALQTKGTLQK [A21T]	2.56

Variant	protein stability index
CFITLTTIGFGDYVALQTKGHLQK [A21H]	3.21
CFITLTTIGFGDYVALQTKGVLQK [A21V]	2.29
CFITLTTIGFGDYVALQTKGPLQK [A21P]	2.97
CFITLTTIGFGDYVALQTKGDLQK [A21D]	2.88
CFITLTTIGFGDYVALQTKGGLQK [A21G]	2.1
CFITLTTIGFGDYVALQTKGLLQK [A21L]	3.54
CFITLTTIGFGDYVALQTKGNLQK [A21N]	2.39
CFITLTTIGFGDYVALQTKGMLQK [A21M]	1.99
CFITLTTIGFGDYVALQTKGFLQK [A21F]	3.44
CFITLTTIGFGDYVALQTKGQLQK [A21Q]	2.21
CFITLTTIGFGDYVALQTKGCLQK [A21C]	3.22
CFITLTTIGFGDYVALQTKGRLQK [A21R]	3.3
CFITLTTIGFGDYVALQTKGKLQK [A21K]	3.05
CFITLTTIGFGDYVALQTKRALQK [G20R]	3.65
CFITLTTIGFGDYVALQTKYALQK [G20Y]	2.54
CFITLTTIGFGDYVALQTKIALQK [G20I]	2.58
CFITLTTIGFGDYVALQTKCALQK [G20C]	3.1
CFITLTTIGFGDYVALQTKTALQK [G20T]	5.14
CFITLTTIGFGDYVALQTKWALQK [G20W]	3.87
CFITLTTIGFGDYVALQTKFALQK [G20F]	3.39
CFITLTTIGFGDYVALQTKDALQK [G20D]	3.25
CFITLTTIGFGDYVALQTKHALQK [G20H]	2.6
CFITLTTIGFGDYVALQTKAALQK [G20A]	3.49
CFITLTTIGFGDYVALQTKSALQK [G20S]	3.74

Variant	protein stability index
CFITLTTIGFGDYVALQTKPALQK [G20P]	2.55
CFITLTTIGFGDYVALQTKNALQK [G20N]	3.17
CFITLTTIGFGDYVALQTKEALQK [G20E]	3.59
CFITLTTIGFGDYVALQTKQALQK [G20Q]	3.38
CFITLTTIGFGDYVALQTKGALRK [Q23R]	1.72
CFITLTTIGFGDYVALQTKGALSK [Q23S]	2.2
CFITLTTIGFGDYVALQTKGALYK [Q23Y]	2.42
CFITLTTIGFGDYVALQTKGALWK [Q23W]	2.73
CFITLTTIGFGDYVALQTKGALFK [Q23F]	2.87
CFITLTTIGFGDYVALQTKGALNK [Q23N]	2.43
CFITLTTIGFGDYVALQTKGALIK [Q23I]	3.28
CFITLTTIGFGDYVALQTKGALKK [Q23K]	2.96
CFITLTTIGFGDYVALQTKGALLK [Q23L]	3.52
CFITLTTIGFGDYVALQTKGALTK [Q23T]	3.26
CFITLTTIGFGDYVALQTKGALEK [Q23E]	1.94
CFITLTTIGFGDYVALQTKGALVK [Q23V]	4.51
CFITLTTIGFGDYVALQTKGALPK [Q23P]	2.14
CFITLTTIGFGDYVALQTKGALDK [Q23D]	2.98
CFITLTTIGFGDYVALQTKGALAK [Q23A]	3.76
CFITLTTIGFGDYVALQTKGALHK [Q23H]	3.06
CFITLTTIGFGDYVALQTKGALGK [Q23G]	3.46
CFITLTTIGFGDYVALQTKGALCK [Q23C]	2.6
